# In patent publication US20260209387A1, “SINGLE-DOMAIN ANTIBODY FOR INHIBITION OF NEUTROPHIL ELASTASE ACTIVITY” (UNIVERSITE DE LIEGE, priority 2023, published 2026):
# T1: human proteinase 3 (hPR3) (Homo sapiens, UniProt P24158)
# T1 construct: purchased EPC (Elastin Products Company)
# T1 sequence (P24158 28-248): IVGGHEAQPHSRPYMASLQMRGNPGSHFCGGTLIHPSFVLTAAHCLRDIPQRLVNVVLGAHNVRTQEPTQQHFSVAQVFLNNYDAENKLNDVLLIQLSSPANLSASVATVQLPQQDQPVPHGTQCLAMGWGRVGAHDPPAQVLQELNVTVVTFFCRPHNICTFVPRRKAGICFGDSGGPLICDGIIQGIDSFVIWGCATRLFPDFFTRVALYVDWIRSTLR
# Key:
# [1] = molecular target: T1, human proteinase 3 (hPR3); assay: BLI binding to other serine proteases: hPR3; conditions: 50 nM protease
# Experimental: (§1) The specificity of NbE201 for hNE was also investigated by BLI. Biotinylated NbE201 (10 μg/mL) was immobilized on streptavidin biosensors (SA, Sartorius) following provider's indications. The biosensors were then immersed in a 50 nM solution of a serine protease. The proteases tested were human cathepsin G (hCG), human proteinase 3 (hPR3), mouse pancreatic elastase (mPE), mouse neutrophil elastase (mNE) and porcine pancreatic elastase (pPE). hNE was used a positive control. The association and dissociation were measured for 70 s and 320 s respectively, in kinetic buffer (KB, Sartorius). The experiments were carried out at 30° C. in 384-wells black-bottom microplates in polypropylene (Greiner Bio-One, Belgium) and with orbital agitation (1000 rpm).
# [2] = test system: mouse pancreatic elastase (mPE); assay: BLI binding to other serine proteases: mPE; conditions: 50 nM protease
# Experimental: as §1
molecule,measurement,setting,value
"NbE201: anti-hNE ISVD (VHH/nanobody) from immunized lama, amino acid sequence SEQ ID NO: 4 (protein) VHH: QVQLQESGGGLVQAGGSLRLSCVVPGRTISLYRMGWFRQAPGKEREFVAGINWSGDMTDYVDSVKGRFTISRDNAKNTVYLEMNSLKPEDTAIYYCTADPKLLPLADSSYGYWGQGTQVTVSS",binding to hPR3 by BLI,[1],does not bind to the other proteases
same,binding to mPE by BLI,[2],does not bind to the other proteases
